# Numbering of substitutions follows the chain as printed.
# B1: G2-CH1 (antibody, human IgG1, kappa, V domains shown)
# VH: QVTLKESGPGILQPSQTLSLTCSFSGFSLSTYGIGVGWIRQPSGKGLEWLAHIWWNNNKYFNTALKSRLTISKDTSNNQVFLKIASVDTADSATYYCARMGYDIMDYWGQGTSVTVSS
# VL: DIVMTQSHKFMSTSVGDRVSITCKASQDVNTAVAWYQQKPGQSPKFLIYSSSYRYTGVPDRFTGSGSGTDFTFTISSVQAEDLAVYYCQQHYSTPWTFGGGTKLEIKR
# notes: chimeric: murine variable regions on human IgG1 constant region mutant (LALAGA, -K)
# B2: G2-CH12 (antibody, human IgG1, kappa, V domains shown)
# VH: QVQLQQSGAELVKPGASVKLSCKASGYTFTNYDINWVRQRPEQGLEWIGWIFPGDGSTKYNEKFKDKATLTTDTSSSTAYMQLIRLTSEDSAVYFCARILYWGQGTTLTVSS
# VL: DNKMTQSPSSMYASLGERVTITCKASQDINSYLSWFQQKPGKSPKTLIYRANKLVDGVPSRFSGSGSGQDYSLTISSLEYEDMGIYHCLQYDEFPYTFGGGTKLEIKR
# notes: as for B1
# B3: G2-CH13 (antibody, human IgG1, kappa, V domains shown)
# VH: EVLLQQSGPELVKPGASVKITCKASGYTFTDYNMNWVKQSHGKSLEWIGDINPYNGGIIYNQKFRGKATLTIDKSSSTAYMELRSLTSEDTAVYYCAREVRRGSFFDYWGQGTTLTVSS
# VL: DIQMTQSPASLSVSVGETVTITCRASENIYSNLAWYQQKQGKSPQLLVYAATDLADGVPSRFSGSGSGTQYSLKINSLQSEDFGNYHCQLFWGTPTFGGGTKLEIKR
# notes: as for B1
# B4: G2-CH14 (antibody, human IgG1, kappa, V domains shown)
# VH: QVTLKESGPGILQPSQTLSLTCSFSGFSLSTSGMGVSWIRQPSGKGLEWLALIYWDDDKRYNPSLKSRLTISKDASSNQVFLKITSVDTADTATYYCIQSPWDWFAYWGQGTLVTVSA
# VL: EIVLTQSPALMAASPGEKVTITCSVSSSISSSNLHWYQQKSETSPKPWIYGTSNLASGVPVRFSGSGSGTSYSLTISSMEAEDAATYYCQQWSSYPLTFGAGTKLELKR
# notes: as for B1
# B5: G2-CH16 (antibody, human IgG1, kappa, V domains shown)
# VH: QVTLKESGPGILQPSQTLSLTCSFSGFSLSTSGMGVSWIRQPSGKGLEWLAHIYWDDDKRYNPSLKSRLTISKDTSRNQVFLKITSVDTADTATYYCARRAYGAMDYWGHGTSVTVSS
# VL: DIVMTQSQKFMSTSVGDRVSVTCKASQNVGTNIAWFQQKPGQSPEALIYSASYRYSGVPDRFTGSGSGTDFTLTISNVQSEDLAEYFCQQYNTYPHTFGGGTKLEIRR
# notes: as for B1
# B6: G2-CH2 (antibody, human IgG1, kappa, V domains shown)
# VH: QVTLKESGPGILQPSQTLSLTCSFSGFSLTISGMGVSWIRQPSGKGLEWLAHIYWDDDKRYNPSLKSRLTISKDTSSNQVFLEITSVDTADTATYYCVRAGWDFFDYWGQGTTLTVSS
# VL: B5 VL with I33V, F36Y, E45K, A46G, T93S, H96W, R107K
# notes: as for B1
# B7: G2-CH3 (antibody, human IgG1, kappa, V domains shown)
# VH: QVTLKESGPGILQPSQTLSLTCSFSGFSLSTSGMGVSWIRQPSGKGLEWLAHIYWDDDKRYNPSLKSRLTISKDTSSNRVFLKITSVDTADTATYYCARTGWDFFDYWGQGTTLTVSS
# VL: B5 VL with I33V, F36Y, E45K, A46G, S76N, T93S, H96Y, R107K
# notes: as for B1
# B8: G2-CH5 (antibody, human IgG1, kappa, V domains shown)
# VH: EVLLQQSGPELVKPGASVKIACKASGYTLTDYNLNWVKQSHGKSLEWIGDLNPYNGGIIYNQKFKGKATLTVDKSSSTAYMELRSLTSEDIAVYYCAREGRGGAWFDSWGQGTLVTVSA
# VL: DIQMTQSSSSFSVSLGDRVTITCKASEDIYHRLAWYQQKPGNAPRLLISGATSLETGIPSRFSGSGSGKDYALSITSLQTEDVGTYYCQQYWSPPFTFGSGTKLEIKR
# notes: as for B1
# B9: G2-CH6 (antibody, human IgG1, kappa, V domains shown)
# VH: EVQLRQSGPELVKPGTSMKISCKASAYSFTDYNMNWVKQSHGKNLEWIGLINPYNGGTRYNQNFKGKATITVDRSSTTAYMELLSLTSEDSAIYYCAREVRLGNALDYWGQGTSVTVSS
# VL: DIQMTQSPASLSVSVGETVTITCRPSESIYSNLAWYQQKQGKSPQLLVYAATNLADGVPSRFSGSGSGTQYSLKINSLQSEDFGTYYCQHFWGIPWTFGGGTKLEIKR
# notes: as for B1
# B10: G2-H5-H3.2L1-hIgG1(LALAGA,-K) (antibody, V domains shown)
# VH: EVQLVQSGAEVKKPGASVKVSCKASGYTFTDYNLNWVRQATGQGLEWIGDLNPYNQGIIYNQKFKGRATLTVDKSISTAYMELSSLRSEDTAVYYCAREGRGGAWFDSWGQGTLVTVSS
# VL: DIQMTQSPSSLSASVGDRVTITCKASEDIYHRLAWYQQKPGKAPKLLIYGATSLETGVPSRFSGSGSGTDFTFTISSLQPEDIATYYCQQYWSPPFTFGGGTKVEIKR
# notes: humanized from G2-CH5-HP2
# B11: G2-H5-H3.2L2-hIgG1(LALAGA,-K) (antibody, V domains shown)
# VH: B10 VH
# VL: B10 VL with F71Y
# notes: humanized from G2-CH5-HP2
# B12: G2-H5-H3.2L3-hIgG1(LALAGA,-K) (antibody, V domains shown)
# VH: B10 VH
# VL: B10 VL with Y49S, F71Y
# notes: humanized from G2-CH5-HP2
# B13: G2-H5-H3.2L4-hIgG1(LALAGA,-K) (antibody, V domains shown)
# VH: B10 VH
# VL: B10 VL with Y49S, V58I, F71Y
# notes: humanized from G2-CH5-HP2
# B14: G2-H5-H4.2L1-hIgG1(LALAGA,-K) (antibody, V domains shown)
# VH: B10 VH with F29L, D73N
# VL: B10 VL
# notes: humanized from G2-CH5-HP2
# B15: G2-H5-H4.2L2-hIgG1(LALAGA,-K) (antibody, V domains shown)
# VH: B10 VH with F29L, D73N
# VL: B10 VL with F71Y
# notes: humanized from G2-CH5-HP2
# B16: G2-H5-H4.2L3-hIgG1(LALAGA,-K) (antibody, V domains shown)
# VH: B10 VH with F29L, D73N
# VL: B10 VL with Y49S, F71Y
# notes: humanized from G2-CH5-HP2
# B17: G2-H5-H4.2L4-hIgG1(LALAGA,-K) (antibody, V domains shown)
# VH: B10 VH with F29L, D73N
# VL: B10 VL with Y49S, V58I, F71Y
# notes: humanized from G2-CH5-HP2
# Biological target: T1, human GDF15 recombinant protein (ACRO, GD5-H5149) (human, UniProt Q99988 197-308)
# T1 sequence (looked up): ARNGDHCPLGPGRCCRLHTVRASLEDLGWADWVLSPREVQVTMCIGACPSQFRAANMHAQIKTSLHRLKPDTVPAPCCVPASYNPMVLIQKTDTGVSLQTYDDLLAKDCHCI
# Assay: cell-based or functional assay
row,Binder,"IC50, luciferase reporter gene cell strain (mGFRAL/RET HEK293) with hGDF15 [nM]"
1,B1,3.75
2,B2,6.8
3,B3,11.7
4,B4,0.2
5,B5,0.45
6,B6,3.24
7,B7,3.55
8,B8,3.45
9,B9,4.39

# Biological target: T1, human GDF15 recombinant protein (ACRO, …)
# Assay: cell-based or functional assay
# Remark: another data set of the same source
row,Binder,"IC50, reporter gene cell strain (GFRAL/RET) [nM]"
1,B10,0.068
2,B11,0.041
3,B12,0.064
4,B13,0.039
5,B14,0.087
6,B15,0.059
7,B16,0.049
8,B17,0.081

# Biological target: T1, human GDF15 recombinant protein (ACRO, …)
# Assay: ELISA, coated hGDF-15.His
row,Binder,EC50 [nM]
1,B1,0.00387
2,B2,0.0106
3,B3,0.00382
4,B4,0.00663
5,B5,0.00476
6,B6,0.00627
7,B7,0.00453
8,B8,0.00394
9,B9,0.00434

# Biological target: T2, mouse GDF15 recombinant protein (Kactus, GDF-MM215) (mouse, UniProt Q9Z0J7 189-303, limits assumed)
# T2 construct: also called mGDF-15.hFc; murine GDF15; not shown: human Fc (hFc)
# T2 sequence (looked up): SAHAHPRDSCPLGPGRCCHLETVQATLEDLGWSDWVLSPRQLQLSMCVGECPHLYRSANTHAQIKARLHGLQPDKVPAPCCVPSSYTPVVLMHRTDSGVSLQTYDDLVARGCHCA
# Assay: ELISA, coated mGDF-15.hFc
row,Binder,EC50 [nM]
1,B1,0.17
2,B2,5.64
3,B3,0.22
4,B4,0.76
5,B5,0.32
6,B6,0.26
7,B7,56.5
8,B8,0.12
9,B9,0.11

# Biological target: T3, cynomolgus monkey GDF15 recombinant protein (Kactus, GDF-CM215) (cynomolgus monkey, UniProt G7PWZ3 197-308, limits assumed)
# T3 construct: also called cynoGDF-15.hFc; cynoGDF15; not shown: human Fc (hFc)
# T3 sequence (looked up): T1 sequence (looked up) with H6R, R21H, A54E, T63M, S64N, I112V
# Assay: ELISA, coated cynoGDF-15.hFc
row,Binder,EC50 [nM]
1,B1,0.086
2,B2,0.211
3,B3,0.0654
4,B4,0.0721
5,B5,0.0909
6,B6,0.098
7,B7,0.102
8,B8,0.0929
9,B9,0.0892

# Biological target: T4, GDF15 protein (R&D, 8146-GD) (UniProt Q99988 197-308)
# T4 construct: analyte of the SPR assay
# T4 sequence (looked up): T1 sequence (looked up)
# Assay: SPR Biacore T200, antibody captured by anti-hFc on CM5, GDF15 as analyte, 1:1 model
Binder,Kd [nM],koff [s⁻¹],kon [M⁻¹ s⁻¹]
B10,0.0245,0.000173,7.03e+06
B11,0.0327,0.000265,8.1e+06
B12,0.0339,0.000359,1.06e+07
B13,0.0221,0.000175,7.9e+06
B14,0.0442,0.000278,6.28e+06
B15,0.0273,0.000239,8.75e+06
B16,0.0251,0.000193,7.68e+06
B17,0.0349,0.00026,7.44e+06

# Reference: patent EP4810515A1 (Shanghai Haiju Biological Technology Co., Ltd., dated 2026)
